The text below walks through data of US20170298096A1 (CANIMGUIDE THERAPEUTICS, published 2017).

The experiment has as its target T1, His-tagged P3028 (human, also: His-tag, terminus and sequence not given here).
T1 construct: in solution at 0.5 ug/mL over the peptide cards; found with anti-His-tag antibody and rabbit anti-mouse peroxidase (rampo); also called PGE73; not shown: His-tag
T1 peptide: VFDEFKPLVEEPQNLIK
The experiment is described as follows: PEPSCAN chip ELISA, His-P3028 in solution.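 Also: score is the raw OD at 405 nm from peroxidase colour with ABTS, imaged by CCD camera before and after staining, with wells showing air bubbles set to zero.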 For orientation: ELISA stands for enzyme-linked immunosorbent assay.

No end group written: not given here.

Regarding RKLDTFFVKLSLFTER [SEQ ID NO 3], the “RAMPO Score” value amounted to 523 rampo score. In the case of LKLDTFFVKLSLFTER [SEQ ID NO 274], the “RAMPO Score” value turned out to be 449 rampo score. Next, KKQDTFFVKLSLFTER [SEQ ID NO 293]: 473 rampo score; KKHDTFFVKLSLFTER [SEQ ID NO 288]: 477 rampo score; KKADTFFVKLSLFTER [SEQ ID NO 282]: 427 rampo score. Regarding KKLDTFFVKLSLQTER [SEQ ID NO 23], the “RAMPO Score” value amounted to 1140 rampo score. Next, KKLDTFVVKLSLFTER [SEQ ID NO 11]: 527 rampo score; KKLDGFFVKLSLFTER [SEQ ID NO 95]: 386 rampo score. With KKLDTFFVKLSLGTER [SEQ ID NO 100], the “RAMPO Score” value turned out to be 531 rampo score.

Turning to KKLDTFFVKLSLFNER [SEQ ID NO 31], the “RAMPO Score” value was 599 rampo score. Consider KKLDTFFVKLSLFRER [SEQ ID NO 33], for which the “RAMPO Score” value amounted to 264 rampo score. For the molecule KKLDTAFVKLSLFTER [SEQ ID NO 7], the “RAMPO Score” value was 575 rampo score. KKLDTFFVKLSLGTER [SEQ ID NO 28]: the “RAMPO Score” value is 531 rampo score.

In the case of RKLDTFFVKLSLFTER [SEQ ID NO 279], the “RAMPO Score” value came out at 523 rampo score. The figure for KKLDTFFVKLSVFTER [SEQ ID NO 20] is 545 rampo score; for KKLDTFFVKLHLFTER [SEQ ID NO 18] it is 535 rampo score; for KKGDTFFVKLSLFTER [SEQ ID NO 4] it is 563 rampo score.

On to KKLDTFTVKLSLFTER [SEQ ID NO 12], for which the “RAMPO Score” value came out at 517 rampo score. The figure for KKLDTFLVKLSLFTER [SEQ ID NO 13] is 517 rampo score; for KKKDTFFVKLSLFTER [SEQ ID NO 290] it is 386 rampo score; for HKLDTFFVKLSLFTER [SEQ ID NO 272] it is 428 rampo score. On to KKLDTFFVKLSLSTER [SEQ ID NO 27], for which the “RAMPO Score” value amounted to 635 rampo score. The figure for KKEDTFFVKLSLFTER [SEQ ID NO 5] is 528 rampo score. On to KKIDTFFVKLSLFTER [SEQ ID NO 289], for which the “RAMPO Score” value came to 454 rampo score. Regarding KKLDTFMVKLSLFTER [SEQ ID NO 9], the “RAMPO Score” value turned out to be 712 rampo score. The figure for GKLDTFFVKLSLFTER [SEQ ID NO 93] is 367 rampo score; for KKLDTFFVKLMLFTER [SEQ ID NO 16] it is 744 rampo score; for KKLDTFFVKLSLHTER [SEQ ID NO 24] it is 1050 rampo score. With KKLDTFFVKLSLNTER [SEQ ID NO 25], the “RAMPO Score” value was 862 rampo score. As for DKLDTFFVKLSLFTER [SEQ ID NO 269], the “RAMPO Score” value stood at 373 rampo score.

Turning to KKLDTFFVKLSLMTER [SEQ ID NO 22], the “RAMPO Score” value worked out at 1190 rampo score. The figure for EKLDTFFVKLSLFTER [SEQ ID NO 270] is 396 rampo score; for KKRDTFFVKLSLFTER [SEQ ID NO 294] it is 370 rampo score. Next, KKLDTFFVKLQLFTER [SEQ ID NO 15]: 768 rampo score.

Take KKLDTFFVKLSQFTER [SEQ ID NO 19]: the “RAMPO Score” value was 651 rampo score. VKLDTFFVKLSLFTER [SEQ ID NO 281]: the “RAMPO Score” value turned out to be 442 rampo score.

On to KKLDTFFVKVSLFTER [SEQ ID NO 14], for which the “RAMPO Score” value stood at 658 rampo score. Next, KKLDTVFVKLSLFTER [SEQ ID NO 8]: 547 rampo score; KKEDTFFVKLSLFTER [SEQ ID NO 285]: 528 rampo score; KKLDTFFVKLTLFTER [SEQ ID NO 17]: 520 rampo score. Next, QKLDTFFVKLSLFTER [SEQ ID NO 278]: 455 rampo score; KKLDQFFVKLSLFTER [SEQ ID NO 6]: 535 rampo score; KKLDTFFVKLSLATER [SEQ ID NO 29]: 525 rampo score.

With TKLDTFFVKLSLFTER [SEQ ID NO 280], the “RAMPO Score” value was 493 rampo score. The figure for AKLDTFFVKLSLFTER [SEQ ID NO 268] is 466 rampo score; for KKGDTFFVKLSLFTER [SEQ ID NO 94] it is 563 rampo score. The figure for GKLDTFFVKLSLFTER [SEQ ID NO 271] is 367 rampo score; for KKFDTFFVKLSLFTER [SEQ ID NO 286] it is 393 rampo score; for KKLDTFFVKLSLPTER [SEQ ID NO 26] it is 696 rampo score. For KKLDTFFVKLSMFTER [SEQ ID NO 21], the “RAMPO Score” value is 499 rampo score.

KKLDTFFVKLSLRTER [SEQ ID NO 30]: the “RAMPO Score” value was determined as 502 rampo score. As for KKDDTFFVKLSLFTER [SEQ ID NO 284], the “RAMPO Score” value is 492 rampo score.

With NKLDTFFVKLSLFTER [SEQ ID NO 276], the “RAMPO Score” value is 445 rampo score. For KKCDTFFVKLSLFTER [SEQ ID NO 283], the “RAMPO Score” value was 432 rampo score. The figure for KKLDTFFVKLSLFPER [SEQ ID NO 32] is 551 rampo score. Consider MKLDTFFVKLSLFTER [SEQ ID NO 275], for which the “RAMPO Score” value came to 457 rampo score. The figure for KKGDTFFVKLSLFTER [SEQ ID NO 287] is 563 rampo score; for KKLDTFSVKLSLFTER [SEQ ID NO 10] it is 700 rampo score; for KKMDTFFVKLSLFTER [SEQ ID NO 291] it is 460 rampo score. Take PKLDTFFVKLSLFTER [SEQ ID NO 277]: the “RAMPO Score” value stood at 387 rampo score. The figure for KKLDTFGVKLSLFTER [SEQ ID NO 96] is 347 rampo score; for IKLDTFFVKLSLFTER [SEQ ID NO 273] it is 483 rampo score. KKLDTFFVKLGLFTER [SEQ ID NO 99]: the “RAMPO Score” value amounted to 288 rampo score. The figure for KKNDTFFVKLSLFTER [SEQ ID NO 292] is 374 rampo score.

As to KKLDTFFKKLSLFTER (also called P27; SCF 27) [SEQ ID NO 264], the “RAMPO Score” value was determined as 253 rampo score.
